This is an account of results in US20140287990A1 (published 2014).

B2: Pf MSP1-19, C-terminal fragment of the P. falciparum merozoite surface protein MSP1 (other)
chain: NISQHQCVKKQCPENSGCFRHLDEREECKCLLNYKQEGDKCVENPNPTCNENNGGCDADATCTEEDSGSSRKKITCECTKPDSYPLFDGIFCS
notes: domain: MSP1-19; Immobilised on CM5 sensor chips
B3: azurin from Pseudomonas aeruginosa (other)
chain: AECSVDIQGNDQMQFNTNAITVDKSCKQFTVNLSHPGNLPKNVMGHNWVLSTAADMQGVVTDGMASGLDKDYLKPDDSRVIAHTKLIGSGEKDSVTFDVSKLKEGEQYMFFCTFPGHSALMKGTLTLK
notes: Recombinant cupredoxin (copper protein) expressed in E. coli JM109 from pUC19-paz; also called wt azurin; wt-azurin
B4: DC-SIGN (DC-specific intercellular adhesion molecule 3-grabbing nonintegrin) (receptor, UniProt Q9NNX6 62-404, looked up)
chain: KVPSSISQEQSRQDAIYQNLTQLKAAVGELSEKSKLQEIYQELTQLKAAVGELPEKSKLQEIYQELTRLKAAVGELPEKSKLQEIYQELTWLKAAVGELPEKSKMQEIYQELTRLKAAVGELPEKSKQQEIYQELTRLKAAVGELPEKSKQQEIYQELTRLKAAVGELPEKSKQQEIYQELTQLKAAVERLCHPCPWEWTFFQGNCYFMSNSQRNWHDSITACKEVGAQLVVIKSAEEQNFLQLQSSRSNRFTWMGLSDLNQEGTWQWVDGSPLLPSFKQYWNRGEPNNVGEEDCAEFSGNGWNDDKCNLAKFWICKKSAASCSRDEEQFLSPAPATPNPPPA
notes: Immobilised on a CM5 sensor chip
B5: Laz from Neisseria gonorrhoeae F62 (other)
chain: CSQEPAAPAAEATPAGEAPASEAPAAEAAPADAAEAPAAGNCAATVESNDNMQFNTKDIQVSKACKEFTITLKHTGTQPKASMGHNLVIAKAEDMDGVFKDGVGAADTDYVKPDDARVVAHTKLIGGGEESSLTLDPAKLADGDYKFACTFPGHGALMNGKVTLVD
notes: also called Neisserial Laz protein

For experiment [1], the target named is B2. The experiment is described as follows: SPR (Biacore X), MSP1-19 immobilised on CM5, equilibrium response fitted to Req=Rmax/(1+(Kd/C)).
Experiment [2] addresses T1, Pf MSP1-42, C-terminal fragment of the P. falciparum merozoite surface protein MSP1 (Plasmodium falciparum, UniProt Q8I0U8 1327-1699).
T1 construct: domain: MSP1-42; Immobilised on CM5 sensor chips
T1 sequence: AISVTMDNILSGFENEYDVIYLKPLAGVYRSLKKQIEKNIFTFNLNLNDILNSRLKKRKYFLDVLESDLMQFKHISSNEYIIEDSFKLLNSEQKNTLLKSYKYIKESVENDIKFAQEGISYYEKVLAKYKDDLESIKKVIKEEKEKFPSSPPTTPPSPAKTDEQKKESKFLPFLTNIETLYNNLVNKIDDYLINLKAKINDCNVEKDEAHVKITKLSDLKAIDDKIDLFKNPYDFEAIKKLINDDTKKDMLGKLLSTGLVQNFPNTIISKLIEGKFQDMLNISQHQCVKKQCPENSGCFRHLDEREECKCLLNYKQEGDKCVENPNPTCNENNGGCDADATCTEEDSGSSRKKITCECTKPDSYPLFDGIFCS
The experiment is described as follows: SPR (Biacore X), MSP1-42 immobilised on CM5, equilibrium response fitted to Req=Rmax/(1+(Kd/C)).

The target in experiment [3] is T2, glutathione S-transferase (GST) (UniProt P08515 1-218 = GST).
T2 construct: Control protein in the SPR experiments
The experiment is described as follows: SPR, MSP1-19 immobilised on CM5. In general terms: Surface plasmon resonance follows binding to a sensor surface in real time, without labels.

Experiment [4] has as its target T3, GST-Azu 36-128 (GST fused in frame to azurin amino acids 36 to 128) (Pseudomonas aeruginosa, UniProt P08515 1-218 = GST).
T3 construct: Azurin fragment cloned into the BamHI and EcoRI sites of pGEX-5X
The experiment is described as follows: SPR, MSP1-19 immobilised on CM5.

Experiment [5] deals with T4, GST-Azu 36-89 (GST fused in frame to azurin amino acids 36 to 89) (Pseudomonas aeruginosa, UniProt P08515 1-218 = GST).
T4 construct: also called pGST-azu 36-89 product
As to the kind of experiment: SPR, MSP1-19 immobilised on CM5.

Experiment [6] has as its target GST-Azu 88-113 (GST fused in frame to azurin amino acids 88 to 113) (Pseudomonas aeruginosa, UniProt P08515 1-218 = GST). The experiment is described as follows: SPR, MSP1-19 immobilised on CM5, GST-Azu fusion series.
The target of experiment [7] is B3. The experiment is described as follows: SPR (Biacore X), MSP1-19 immobilised on CM5, equilibrium response fitted to Req=Rmax/(1+(Kd/C)).
Experiment [8] addresses B5. Described as above.
The next experiment concerns the target ICAM-1 (UniProt P05362 28-480). The experiment is described as follows: SPR, azurin immobilised on CM5.
Another experiment addresses T5, ICAM-2 (UniProt P13598 25-223).
T5 sequence: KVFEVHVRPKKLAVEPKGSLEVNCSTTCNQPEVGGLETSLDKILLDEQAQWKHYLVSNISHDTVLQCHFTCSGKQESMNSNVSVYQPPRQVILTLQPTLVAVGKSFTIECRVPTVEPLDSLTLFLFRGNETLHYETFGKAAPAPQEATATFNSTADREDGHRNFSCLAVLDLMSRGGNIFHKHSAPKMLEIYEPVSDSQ
The experiment is described as follows: SPR, azurin immobilised on CM5.

A further experiment addresses HIV-1 gp41 (HIV-1, UniProt P04578 512-684). As to the kind of experiment: SPR, azurin immobilised on CM5.
The target in another experiment is HIV-1 gag (HIV-1, UniProt P04591 1-500). As to the kind of experiment: SPR, azurin immobilised on CM5 (target taken from the preceding sentence).
For a further experiment, the target named is T6, HIV-1 nef (HIV-1, UniProt P04601 1-206).
T6 sequence: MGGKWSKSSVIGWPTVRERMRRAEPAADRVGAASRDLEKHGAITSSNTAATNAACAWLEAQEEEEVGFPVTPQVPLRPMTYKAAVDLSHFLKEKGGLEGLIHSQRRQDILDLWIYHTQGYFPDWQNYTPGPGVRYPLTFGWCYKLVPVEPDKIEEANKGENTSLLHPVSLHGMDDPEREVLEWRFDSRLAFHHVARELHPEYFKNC
The experiment is described as above.

Experiment [9] addresses T7, CD4 (UniProt P01730 26-396).
T7 construct: Bought protein; Used both immobilised on CM5 and as eluent
The experiment is described as follows: SPR, azurin immobilised on CM5 (Az-CM5), 1 mg/ml CM5 in HBS-EP running buffer.

Experiment [10] concerns the target T7, CD4. The experiment is described as follows: SPR, CD4 immobilised on CM5 (CD4-CM5), equilibrium response fitted to Req=Rmax/(1+(Kd/C)).
In experiment [11] the target is T8, ICAM-3 (UniProt P32942 30-485, limits assumed).
T8 sequence (looked up): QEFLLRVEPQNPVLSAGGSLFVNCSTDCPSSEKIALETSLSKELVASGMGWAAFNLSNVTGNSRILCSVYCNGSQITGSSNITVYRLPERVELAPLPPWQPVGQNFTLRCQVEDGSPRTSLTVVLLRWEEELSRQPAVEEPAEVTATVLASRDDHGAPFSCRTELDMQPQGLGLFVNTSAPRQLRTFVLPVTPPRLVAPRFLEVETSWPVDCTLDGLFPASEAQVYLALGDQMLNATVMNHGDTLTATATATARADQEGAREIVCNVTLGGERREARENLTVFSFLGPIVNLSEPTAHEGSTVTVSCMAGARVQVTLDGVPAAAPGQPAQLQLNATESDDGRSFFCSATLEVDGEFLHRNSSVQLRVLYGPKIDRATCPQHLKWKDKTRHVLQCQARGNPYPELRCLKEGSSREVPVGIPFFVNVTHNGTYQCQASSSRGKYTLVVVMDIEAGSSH
As to the kind of experiment: SPR, azurin immobilised on CM5, 1 mg/ml CM5 (carboxymethyldextran) in HBS-EP running buffer.

For the next experiment, the target named is T9, NCAM (UniProt P13591 20-718).
T9 construct: also called Neural Cell Adhesion Molecule
Described as above.

The target of experiment [12] is B4. The experiment is described as follows: SPR, DC-SIGN immobilised on CM5, proteins injected at 0-100 nM, equilibrium response fitted to Req=Rmax/(1+(Kd/C)).
The target in experiment [13] is T8, ICAM-3. The experiment is described as above.
The target of experiment [14] is B2. As to the kind of experiment: SPR, MSP1-19 immobilised on CM5.

As a reminder, the Kd is the constant that tells how readily two partners part at equilibrium. Higher therefore signals weaker binding.

Sequence of GST-Azu 88-113 (GST fused in frame to azurin amino acids 88 to 113) (P08515 1-218, tags left off): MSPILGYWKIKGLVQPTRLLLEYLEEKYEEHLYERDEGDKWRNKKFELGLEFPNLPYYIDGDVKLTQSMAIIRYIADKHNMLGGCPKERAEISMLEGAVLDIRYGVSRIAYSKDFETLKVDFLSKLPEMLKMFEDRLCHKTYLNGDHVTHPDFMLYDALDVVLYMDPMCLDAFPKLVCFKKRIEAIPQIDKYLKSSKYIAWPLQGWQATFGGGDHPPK
T4 sequence (P08515 1-218, tags or fused parts left off): as the sequence (P08515 1-218, tags left off) above
T2 sequence (P08515 whole entry): as the sequence (P08515 1-218, tags left off) above
Sequence of ICAM-1 (P05362 28-480 limits assumed): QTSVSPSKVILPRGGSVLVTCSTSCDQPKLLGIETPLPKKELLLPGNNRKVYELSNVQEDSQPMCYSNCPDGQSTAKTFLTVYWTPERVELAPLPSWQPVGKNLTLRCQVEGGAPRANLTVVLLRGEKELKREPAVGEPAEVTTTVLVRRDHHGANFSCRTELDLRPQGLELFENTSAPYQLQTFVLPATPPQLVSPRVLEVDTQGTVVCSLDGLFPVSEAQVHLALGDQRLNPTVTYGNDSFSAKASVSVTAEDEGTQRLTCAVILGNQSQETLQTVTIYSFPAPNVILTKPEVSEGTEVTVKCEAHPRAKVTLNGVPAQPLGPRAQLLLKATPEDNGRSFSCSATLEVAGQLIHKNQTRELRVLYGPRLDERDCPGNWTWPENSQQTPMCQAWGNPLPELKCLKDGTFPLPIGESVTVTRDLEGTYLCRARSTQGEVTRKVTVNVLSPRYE

B1: H.8-azurin (H.8 epitope of Laz fused in frame to the N-terminal part of P. aeruginosa azurin) (other)
chain: CSQEPAAPAAEATPAGEAPASEAPAAEAAPADAAEAPAAAECSVDIQGNDQMQFNTNAITVDKSCKQFTVNLSHPGNLPKNVMGHNWVLSTAADMQGVVTDGMASGLDKDYLKPDDSRVIAHTKLIGSGEKDSVTFDVSKLKEGEQYMFFCTFPGHSALMKGTLTLK
notes: also called H.8-Paz; H.8-paz
On to B1, for which the Kd was determined as 11.8 nM in experiment [1] and 14.3 nM in [2].
As for B2, the results for the binding result in [3] and in [6] were “no binding (tested: 0.05-300 nM (FIG. 7 legend))” and “no binding”, respectively. Besides, the Kd in [4] turned out to be 24.5 nM; in experiment [5], 20.9 nM; in experiment [7], 32.2 nM; in experiment [8], 26.2 nM.
As to B3, the binding result with ICAM-1, with ICAM-2, with HIV-1 gp41, in the experiment with HIV-1 gag and with HIV-1 nef was “no binding” in each case. Also, the Kd in the experiment with CD4 [9] is 25.1 nM; with CD4 [10], 36.9 nM; with ICAM-3 [11], 19.5 nM; with NCAM, 20 nM; in [2], 54.3 nM; in experiment [12] it was 0.83 nM.
B4 returned a Kd in the experiment with ICAM-3 [13] of 0.93 nM. This lies in the sub-nanomolar range.
Take B5: in [2], the Kd turned out to be 45.6 nM.

B6: H.8-GST (H.8 epitope fused in the N-terminal of GST) (other)
chain: CSQEPAAPAAEATPAGEAPASEAPAAEAAPADAAEAPAA
notes: not shown: glutathione S-transferase (GST) of the commercial pGEX-5X-3 / pET29a-gst vectors
In the case of B6, the binding result in experiment [14] was “no binding (tested: 0.05-300 nM (FIG. 7 legend))”.
